Values joined by “and” are separate entries in the source; they are usually repeats but may differ in a detail not shown here. Identical values can stand only once.

The nature of one series: Determination of S from retention time shift Δ relative to P3 at two gradient slopes, nano-RP-HPLC MS of spiked tryptic digest. Conditions: experimental S value, LC-MS runs of model peptide mixture. It counts as physicochemical. The method, then: Proteins and protein digestion. Tryptic digests of two different protein mixtures were utilized. The “test peptide mixture” contained human proteins: albumin, transferrin, fibrinogen. The “model peptide mixture” contained bovine proteins: albumin, transferrin, fibrinogen, catalase. Equimolar mixtures of the proteins were prepared, reduced with DTT, alkylated with iodoacetamide and digested with sequencing-grade modified trypsin (Promega, Madison, Wis.). Prior to nano-LC MS/MS analysis, mixtures were diluted with buffer A (0.1% formic acid in water) and spiked with the 6 standard peptides P1-P6^24 for test mixture and the set of 11 model peptides (described elsewhere^23) for a model mixture. All dilutions were performed to provide an injection of ˜100 fmole of each component into the nanoRP-HPLC MS system.
Chromatography. All chromatographic experiments were conducted at a controlled temperature of 22-23° C. For isocratic measurement of the slope values, a micro-Agilent 1100 Series system (Agilent Technologies, Wilmington, Del.), was used with a 1 mm×100 mm 5 μm Luna C18(2) (Phenomenex, Torrance, Calif.) column and a UV detector operated at 214 nm. Both eluents A (water) and B (acetonitrile) contained 0.1% formic acid as ion-pairing modifier. Stock solutions of the 11 standard peptides (˜1 mg/ml) were prepared by dissolving each peptide in 1 ml of 0.1% FA in water or a 20% acetonitrile solution. Ten microliters of sample was injected. Individual peptides were diluted to provide ˜0.5-1 μg injection of each component using a 10 μl loop. The dead volume of the column and connecting tubings was determined by injecting a non-retained compound (water) and measuring the elution time of the negative peak at a 150 μL/min flow rate. Retention factors for isocratic elution were calculated using the formula: k=(tR−t0)/t0c; where tR is the retention time, t0 is the system (column and tubings) dead time, and t0c is the column dead time. Additional details of measuring S-values via constructing log k vs. φ plots are provided elsewhere.^24 The nano-LC MS/MS experiments were conducted using splitless Tempo LC system (Eksigent, Dublin, Calif.) with 20 μL sample injection via a 300 μm×5 mm PepMap100 (Dionex, Sunnyvale, Calif.) trap-column and a 100 μm×200 mm analytical column packed with 5 μm Luna C18(2) (Phenomenex, Torrance, Calif.). Tryptic digests of the mixtures were spiked with calibrating peptides (see Table 1) as described above, injected on the trap-column using buffer A as a carrier and separated using 0.1875, 0.375 and 0.75 percent acetonitrile per minute linear gradients starting from 0.5% acetonitrile at 500 nL/min flow rate. The composition of both eluents A and B was identical to one described above for normal-flow system. Gradient programs consisted of a 0.5-40% linear increase of buffer B in 213.2, 106.6 and 53.3 minutes, respectively. After each run the gradient columns were washed with 80% B for 3 minutes and equilibrated with the starting A:B ratio for 18 minutes.
Mass spectrometry. A QStar Elite mass spectrometer (Applied Biosystems, Foster City, Calif.) equipped with a MicrolonSpray II source was used in standard MS/MS information dependent acquisition (IDA) mode for LC-ESI analyses. Protein identification was performed using Protein Pilot 3.0 (Applied Biosystems, Foster City, Calif.) with a restricted database containing target protein sequences and the sequences of standard peptides. Retention times of identified species (peak maxima) were assigned manually.
These two ways of measurement have been combined to provide a highly accurate and fast way of determining S for an extensive sets of peptides (see FIG. 3). First, precise isocratic measurement of S is performed in normal flow conditions with UV detection for a set of synthetic “S-calibrating” peptides. […]
As for AAANFFSASCVPCADQSSFPK, the “Slope (experimental)” value is on record as 35.1. The same measure, in the same setting: the same measure for AEFVEVTK: 29.046; for AFALECIR: 26.057.

On to AIQISYNPDQPSKPNNIESATK, for which the “Slope (experimental)” value was 42.444.

With ALEHKVDLEDYK, the “Slope (experimental)” value is reported as 39.365. The same measure, in the same setting: the same measure for AMTNLR: 32.841; for ANEGLTWNSLK: 27.455; for APVDAFKECHLAQVPSHAVVAR: 46.264.

Regarding CCTESLVNR, the “Slope (experimental)” value was found to be 33.998.

CGLVPVLAENYK: the “Slope (experimental)” value came out at 27.604. On the same count and under the same terms, next, CLASIAK: 30.212; CLMEGAGDVAFVK: 30.666; CLQDGAGDVAFVK: 31.382.

As to DAQLFIQK, the “Slope (experimental)” value worked out at 24.282. On the same count and under the same terms, next, “DGTRKPVTDAENCHLAR [tryptic peptide of the model peptide mixture, 5 positively charged groups]”: 50.359; DIQYLPILK: 25.291. Still for that read-out and setting: next, DKVVQLEANCQEPCQDTVK: 42.675; DNPQTHYYAVAVVK: 34.815. Same read-out and setting: the same measure for DNPQTHYYAVAVVKK: 39.552. DTDFKLNELR: the “Slope (experimental)” value is listed as 30.459. Regarding ECCHGDLLECADDRADLAK, the “Slope (experimental)” value was found to be 40.256. For ECHLAQVPSHAVVAR, the “Slope (experimental)” value was 44.148. On the same count and under the same terms, the same measure for “EDLIWK [tryptic peptide detected in the model peptide mixture]”: 21.902; for EGFGHLSPTGNTEFWLGNEK: 36.558. The same measure, in the same setting: the same measure for EKYYGYTGAFR: 34.957.

Consider ELPDPQESIQR, for which the “Slope (experimental)” value is recorded as 34.299. Regarding ENFEVLCK, the “Slope (experimental)” value turned out to be 27.436. On the same count and under the same terms, next, ENVLR: 31.531; EPISVSSQQMLK: 33.2; EPYFGYSGAFK: 28.713. On the same count and under the same terms, the same measure for ESGLYFIRPLK: 30.232. ESPQTHYYAVAVVK: the “Slope (experimental)” value turned out to be 36.262. Still for that read-out and setting: the same measure for ETTVFENLPEK: 29.323; for ETTVFENLPEKADR: 34.533; for ETYGDMADCCEK: 36.36. Same read-out and setting: next, EYEATLEECCAK: 35.459. On the same count and under the same terms, next, “FCLFK [tryptic peptide detected in the model peptide mixture]”: 21.68; FFSASCVPCIDR: 32.333. Take FKDLGEEHFK: the “Slope (experimental)” value was found to be 38.336. Still for that read-out and setting: the same measure for FLQEIYNSNSQK: 30.666. Same read-out and setting: the same measure for FNSANDDNVTQVR: 38.415; for FPTIPLSR: 27.325. The same measure, in the same setting: next, FSTVAGESGSADTVRDPR: 44.208.

In the case of GDSVSQGTGLAPGSPR, the “Slope (experimental)” value worked out at 38.571. On the same count and under the same terms, the same measure for GGWTVIQNR: 26.957; for GLIDEVDQDFTSR: 30.089.

Still in this series, the particulars now being: experimental S, LC-MS runs of model peptide mixture, formic acid.
For AAQKPDVLTTGGGNPVGDK, the “Slope (experimental)” value is 41.223. The same measure, in the same setting: next, AAQKPDVLTTGGGNPVGDKLNSLTVGPR: 41.986; ALLEMQQTK: 26.288; ANEGLTWNSLKDK: 32.686.

As for APVDAFK, the “Slope (experimental)” value stood at 26.378. On to ARPATATVGQK, for which the “Slope (experimental)” value is 51.675. Still for that read-out and setting: next, AVLKDGPLTGTYR: 35.435. The same measure, in the same setting: the same measure for AVVQDPALKPLALVYGEATSR: 35.627; for AWSVAR: 26.993. In the case of CACSNHEPYFGYSGAFK, the “Slope (experimental)” value came to 35.846. On the same count and under the same terms, the same measure for CCAADDKEACFAVEGPK: 38.207; for CGLVPVLAENR: 26.128. Same read-out and setting: the same measure for CGLVPVLAENRK: 30.745; for CLVEK: 27.661. Regarding DALLFPSFIHSQK, the “Slope (experimental)” value was found to be 29.523.

DALLFPSFIHSQKR: the “Slope (experimental)” value was determined as 30.728. Same read-out and setting: next, DDPHACYSTVFDK: 32.575; DDPHACYSTVFDKLK: 35.483. Same read-out and setting: next, DDSPDLPK: 30.875.

For DFPIANGER, the “Slope (experimental)” value turned out to be 26.539. As for DGPLTGTYR, the “Slope (experimental)” value is 28.947. The same measure, in the same setting: next, DKDDFFTR: 25.342.

For DKPDNFQLFQSPHGK, the “Slope (experimental)” value was 32.597.

DLEEGIQTLMGR: the “Slope (experimental)” value turned out to be 26.684.

As to DLGEEHFK, the “Slope (experimental)” value is given as 32.597. On the same count and under the same terms, the same measure for “DLLFK [tryptic peptide detected in the model peptide mixture]”: 18.223; for “DLLFR [tryptic peptide detected in the model peptide mixture]”: 18.36; for DNCCILDER: 28.077. On the same count and under the same terms, the same measure for DQLVDMK: 25.899.

In the case of DQTVIQNTDGNNNEAWAK, the “Slope (experimental)” value came out at 34.721. On the same count and under the same terms, the same measure for DSADGFLK: 22.49; for DSADGFLKIPSK: 30.089; for “DSALGFLR [tryptic peptide detected in the model peptide mixture]”: 21.784. Still for that read-out and setting: next, DSLFNYQK: 24.58.

Take ECCDKPLLEK: the “Slope (experimental)” value came to 35.555. Same read-out and setting: next, ECCHGDLLECADDR: 34.957; ECVPNSNER: 44.66. For EDGGGWWVYNR, the “Slope (experimental)” value is 23.696. On the same count and under the same terms, the same measure for EDGSDPPSGDFLTEGGGVR: 30.812; for EEGSVSSGTKQEFHTGK: 48.449; for ELLIDNEK: 25.018.

For ESKPPDSSKDECMVK, the “Slope (experimental)” value is 48.845.

As to ETGWPFCSDEDWNTK, the “Slope (experimental)” value was 29.105. In the case of FDEFFSAGCAPGSPR, the “Slope (experimental)” value was determined as 28.654.

On to “FYTEDGNVVOLVGNNTPIFFIR (FYTEDGNWDLVGNNTPIFFIR)”, for which the “Slope (experimental)” value stood at 31.467. On the same count and under the same terms, next, GACLLPK: 25.811; GAGAFGYFEVTHDITR: 33.608; GDKELLIDNEK: 32.311. On to GDKVTALYEGFTVQNEANK, for which the “Slope (experimental)” value stood at 35.1. Regarding GEADALNLDGGYIYTAGK, the “Slope (experimental)” value worked out at 31.382. Still for that read-out and setting: the same measure for “GEGENQCACSSR [moderately sized, hydrophilic tryptic species of the model peptide mixture]”: 54.005; for GNLDDFFHR: 26.957; for GRQNQVQDNENVVNEYSSHLEK: 42.444.

Still in this series, the particulars now being: model peptide mixture (tryptic digest of bovine proteins), 0.75 and 0.1875% acetonitrile per minute gradients, formic acid, S from Δ vs. S curve of S-calibrating peptides.
Consider “DGTRKPVTDAENCHLAR [tryptic peptide of the model peptide mixture, 5 positively charged groups]”, for which the “experimental S-value” was 50.4. On the same count and under the same terms, next, “DLLFK [tryptic peptide detected in the model peptide mixture]”: 18.2. On the same count and under the same terms, next, “DLLFR [tryptic peptide detected in the model peptide mixture]”: 18.4; “DSALGFLR [tryptic peptide detected in the model peptide mixture]”: 21.8; “EDLIWK [tryptic peptide detected in the model peptide mixture]”: 21.9.

Turning to “FCLFK [tryptic peptide detected in the model peptide mixture]”, the “experimental S-value” turned out to be 21.7.

Consider “GEGENQCACSSR [moderately sized, hydrophilic tryptic species of the model peptide mixture]”, for which the “experimental S-value” is 54.1 and 51.7.

Source of the values: patent publication US8620595B2, “Methods for determining the retention of peptides in reverse phase chromatography using linear solvent strength theory” (University of Manitoba, priority 2010, dated 2013).
